Assay [1] addresses T1, TLT-1 18-188 relipidated in 20:80 PS:PC vesicles (human, UniProt Q86YW5 18-188).
T1 sequence: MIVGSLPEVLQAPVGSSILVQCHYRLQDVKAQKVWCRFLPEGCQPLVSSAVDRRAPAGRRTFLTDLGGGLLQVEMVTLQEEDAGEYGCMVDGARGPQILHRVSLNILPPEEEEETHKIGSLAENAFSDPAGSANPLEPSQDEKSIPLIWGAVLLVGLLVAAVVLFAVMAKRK
In words: cell-based or functional assay.

In assay [2] the target is T2, TLT-1 receptor on the surface of activated human platelets (human, UniProt Q86YW5 16-311).
T2 sequence: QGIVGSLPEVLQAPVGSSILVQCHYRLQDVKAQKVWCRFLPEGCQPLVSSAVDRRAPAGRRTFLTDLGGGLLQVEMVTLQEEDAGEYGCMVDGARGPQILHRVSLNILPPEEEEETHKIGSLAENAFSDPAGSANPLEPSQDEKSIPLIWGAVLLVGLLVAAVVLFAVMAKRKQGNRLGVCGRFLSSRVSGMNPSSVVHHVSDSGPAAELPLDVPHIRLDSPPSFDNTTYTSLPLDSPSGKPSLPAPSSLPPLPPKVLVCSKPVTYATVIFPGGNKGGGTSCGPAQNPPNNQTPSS
In words: cell-based or functional assay.

Assay [3] concerns the target T3, TLT-1 18-188 relipidated in 20:80 PS:PC vesicles (human) (UniProt Q86YW5).
T3 sequence: T1 sequence

Assay [4] deals with T4, TLT-1 receptor on the surface of activated human platelets (human) (UniProt Q86YW5).
T4 sequence: T2 sequence

B1: hTF.1-219 (soluble tissue factor) (receptor)
chain: SGTTNTVAAYNLTWKSTNFKTILEWEPKPVNQVYTVQISTKSGDWKSKCFYTTDTECDLTDEIVKDVKQTYLARVFSYPAGNVESTGSAGEPLYENSPEFTPYLETNLGQPTIQSFEQVGTKVNVTVEDERTLVRRNNTFLSLRDVFGKDLIYTLYYWKSSSSGKKTAKTNTNEFLIDVDKGENYCFSVQAVIPSRTVNRKSTDSPVECMGQEKGEFRE
Consider B1, for which, in assay [1], the “FVII-mediated FXa generation % Activity lipidated TLT-1” value came out at 1% and the “FVIIa-mediated FXa generation % Activity lipidated TLT-1” value turned out to be 13%. Further, in assay [2], the “FVII-mediated FXa generation % Activity activated plts (n 1)” value was determined as 2% and the “FVIIa-mediated FXa generation % Activity activated plts (n 1)” value amounted to 4%.

B2: Fab 0012-LC-L1-TF;VH-CH1-HPC4 (protein)
light chain-linker-TF: DVVMTQTPLSLPVSLGDQASISCRSSQSLVHRNGNTYFHWCLQKPGQSPKLLIYKVSNRFSGVPDRFSGSGSGTDFTLKISRVEAEDLGVYFCSQSTHVPYTFGGGTKLEIKRTVAAPSVFIFPPSDEQLKSGTASVVCLLNNFYPREAKVQWKVDNALQSGNSQESVTEQDSKDSTYSLSSTLTLSKADYEKHKVYACEVTHQGLSSPVTKSFNRGECGSSGTTNTVAAYNLTWKSTNFKTILEWEPKPVNQVYTVQISTKSGDWKSKCFYTTDTECDLTDEIVKDVKQTYLARVFSYPAGNVESTGSAGEPLYENSPEFTPYLETNLGQPTIQSFEQVGTKVNVTVEDERTLVRRNNTFLSLRDVFGKDLIYTLYYWKSSSSGKKTAKTNTNEFLIDVDKGENYCFSVQAVIPSRTVNRKSTDSPVECMGQEKGEFRE
VH-CH1-HPC4: EVKLLESGGGLVQPGGSLKLSCAASGFDFSRYWMTWVRQAPGKGLEWIGEINPDSSTINYTPSLKDKFIISRDNAKNTLYLQMSEVRSEDTALYYCASGVFTSWGQGTLVTVSAASTKGPSVFPLAPCSRSTSESTAALGCLVKDYFPEPVTVSWNSGALTSGVHTFPAVLQSSGLYSLSSVVTVPSSSLGTKTYTCNVDHKPSNTKVDKRVESKEDQVDPRLIDGK
For B2, in assay [3], the FVII-mediated FXa generation % Activity lipidated TLT-1 amounted to 97% and the FVIIa-mediated FXa generation % Activity lipidated TLT-1 came out at 101%. In assay [4], the FVII-mediated FXa generation % Activity activated plts (n 4) is 111% and the FVIIa-mediated FXa generation % Activity activated plts (n 1) amounted to 125%.

B3: Fab 0012-LC-L2-TF;VH-CH1-HPC4 (protein)
light chain-linker-TF: DVVMTQTPLSLPVSLGDQASISCRSSQSLVHRNGNTYFHWCLQKPGQSPKLLIYKVSNRFSGVPDRFSGSGSGTDFTLKISRVEAEDLGVYFCSQSTHVPYTFGGGTKLEIKRTVAAPSVFIFPPSDEQLKSGTASVVCLLNNFYPREAKVQWKVDNALQSGNSQESVTEQDSKDSTYSLSSTLTLSKADYEKHKVYACEVTHQGLSSPVTKSFNRGECGSGGGGSSGTTNTVAAYNLTWKSTNFKTILEWEPKPVNQVYTVQISTKSGDWKSKCFYTTDTECDLTDEIVKDVKQTYLARVFSYPAGNVESTGSAGEPLYENSPEFTPYLETNLGQPTIQSFEQVGTKVNVTVEDERTLVRRNNTFLSLRDVFGKDLIYTLYYWKSSSSGKKTAKTNTNEFLIDVDKGENYCFSVQAVIPSRTVNRKSTDSPVECMGQEKGEFRE
VH-CH1-HPC4: B2 VH-CH1-HPC4
In the case of B3, in assay [3], the FVII-mediated FXa generation % Activity lipidated TLT-1 stood at 96% and the FVIIa-mediated FXa generation % Activity lipidated TLT-1 was determined as 106%. In assay [4], this molecule registered an FVII-mediated FXa generation % Activity activated plts (n 4) of 96% and an FVIIa-mediated FXa generation % Activity activated plts (n 1) of 112%.

B4: Fab 0012-VH-CH1-L0-TF;LC-HPC4 (protein)
VH-CH1-TF, no linker: EVKLLESGGGLVQPGGSLKLSCAASGFDFSRYWMTWVRQAPGKGLEWIGEINPDSSTINYTPSLKDKFIISRDNAKNTLYLQMSEVRSEDTALYYCASGVFTSWGQGTLVTVSAASTKGPSVFPLAPCSRSTSESTAALGCLVKDYFPEPVTVSWNSGALTSGVHTFPAVLQSSGLYSLSSVVTVPSSSLGTKTYTCNVDHKPSNTKVDKRVESKSGTTNTVAAYNLTWKSTNFKTILEWEPKPVNQVYTVQISTKSGDWKSKCFYTTDTECDLTDEIVKDVKQTYLARVFSYPAGNVESTGSAGEPLYENSPEFTPYLETNLGQPTIQSFEQVGTKVNVTVEDERTLVRRNNTFLSLRDVFGKDLIYTLYYWKSSSSGKKTAKTNTNEFLIDVDKGENYCFSVQAVIPSRTVNRKSTDSPVECMGQEKGEFRE
light chain-HPC4: DVVMTQTPLSLPVSLGDQASISCRSSQSLVHRNGNTYFHWCLQKPGQSPKLLIYKVSNRFSGVPDRFSGSGSGTDFTLKISRVEAEDLGVYFCSQSTHVPYTFGGGTKLEIKRTVAAPSVFIFPPSDEQLKSGTASVVCLLNNFYPREAKVQWKVDNALQSGNSQESVTEQDSKDSTYSLSSTLTLSKADYEKHKVYACEVTHQGLSSPVTKSFNRGECEDQVDPRLIDGK
In assay [3], B4 showed an FVII-mediated FXa generation % Activity lipidated TLT-1 of 98% and an FVIIa-mediated FXa generation % Activity lipidated TLT-1 of 106%. In assay [4], this molecule had an FVII-mediated FXa generation % Activity activated plts (n 4) of 71% and an FVIIa-mediated FXa generation % Activity activated plts (n 4) of 80%.

B5: Fab 0012-VH-CH1-L10-TF;LC-HPC4 (protein)
VH-CH1-linker-TF: EVKLLESGGGLVQPGGSLKLSCAASGFDFSRYWMTWVRQAPGKGLEWIGEINPDSSTINYTPSLKDKFIISRDNAKNTLYLQMSEVRSEDTALYYCASGVFTSWGQGTLVTVSAASTKGPSVFPLAPCSRSTSESTAALGCLVKDYFPEPVTVSWNSGALTSGVHTFPAVLQSSGLYSLSSVVTVPSSSLGTKTYTCNVDHKPSNTKVDKRVESKYGPPSPSSPAPEFLGGSGTTNTVAAYNLTWKSTNFKTILEWEPKPVNQVYTVQISTKSGDWKSKCFYTTDTECDLTDEIVKDVKQTYLARVFSYPAGNVESTGSAGEPLYENSPEFTPYLETNLGQPTIQSFEQVGTKVNVTVEDERTLVRRNNTFLSLRDVFGKDLIYTLYYWKSSSSGKKTAKTNTNEFLIDVDKGENYCFSVQAVIPSRTVNRKSTDSPVECMGQEKGEFRE
light chain-HPC4: B4 light chain-HPC4
Consider B5, for which, in assay [3], the FVII-mediated FXa generation % Activity lipidated TLT-1 is 87% and the FVIIa-mediated FXa generation % Activity lipidated TLT-1 amounted to 93%. In assay [4], this molecule had an FVII-mediated FXa generation % Activity activated plts (n 2) of 78% and an FVIIa-mediated FXa generation % Activity activated plts (n 2) of 81%.

B6: Fab 0012-TF-L4b-VH-CH1;LC-HPC4 (protein)
TF-linker-VH-CH1: SGTTNTVAAYNLTWKSTNFKTILEWEPKPVNQVYTVQISTKSGDWKSKCFYTTDTECDLTDEIVKDVKQTYLARVFSYPAGNVESTGSAGEPLYENSPEFTPYLETNLGQPTIQSFEQVGTKVNVTVEDERTLVRRNNTFLSLRDVFGKDLIYTLYYWKSSSSGKKTAKTNTNEFLIDVDKGENYCFSVQAVIPSRTVNRKSTDSPVECMGQEKGEFREGGGGSGGGGSGGGGSGSEVKLLESGGGLVQPGGSLKLSCAASGFDFSRYWMTWVRQAPGKGLEWIGEINPDSSTINYTPSLKDKFIISRDNAKNTLYLQMSEVRSEDTALYYCASGVFTSWGQGTLVTVSAASTKGPSVFPLAPCSRSTSESTAALGCLVKDYFPEPVTVSWNSGALTSGVHTFPAVLQSSGLYSLSSVVTVPSSSLGTKTYTCNVDHKPSNTKVDKRVESK
light chain-HPC4: B4 light chain-HPC4
Take B6: in assay [3], the FVII-mediated FXa generation % Activity lipidated TLT-1 came out at 0% and the FVIIa-mediated FXa generation % Activity lipidated TLT-1 came to 0%. In assay [4], this molecule displayed an FVII-mediated FXa generation % Activity activated plts (n 1) of 5% and an FVIIa-mediated FXa generation % Activity activated plts (n 2) of 5%.
